Results on 1 protein are retold here after PMC11445749, “Structural bases for blockade and activation of BK channels by Ba^2+ ions” (Frontiers in Molecular Biosciences, 2024).

What is called stoichiometry N is the number of molecules, sites or subunits per partner or assembly.

This data set deals with the molecule itself. In words: cryo-EM structure; Slo1 tetramers in lipid nanodiscs (MSP1E3D1); two samples: Low-Barium (~1.4 mM Ba2+, PDB 7RK6) and High-Barium (10 mM Ba2+ throughout purification, PDB 7RJT); Titan Krios, K2 detector.

B1: Aplysia californica Slo1 BK channel (natural protein)
chain: not shown
notes: Homotetramer in lipid nanodiscs (scaffold MSP1E3D1); also called Aplysia Slo1; Aplysia BK channel; not shown: GFP, C-terminal, cleaved; rho-1D4, C-terminal, cleaved
Consider B1, for which the “stoichiometry N” value was found to be 4.
